Measurements as given in article doi:10.1101/2025.05.20.655083 (2025).
Where no end group is shown, it is not given here. The star is where a group is joined. FITC = O=C1OC2(c3ccc(O)cc3Oc3cc(O)ccc32)c2ccc(NC(=S)*)cc21; Ahx = NCCCCCC(=O)O

Experiments:
Assay in all cases: FP
human importin α5 ΔIBB = human importin α5 ΔIBB (human)
human importin α1 ΔIBB = human importin α1 ΔIBB (human)
human importin α7 ΔIBB = human importin α7 ΔIBB (human)
mouse importin α2 ΔIBB = mouse importin α2 ΔIBB (mouse, UniProt P52293 70-529)

Sequence of human importin α7 ΔIBB (human) (chain, as listed by the source mutant): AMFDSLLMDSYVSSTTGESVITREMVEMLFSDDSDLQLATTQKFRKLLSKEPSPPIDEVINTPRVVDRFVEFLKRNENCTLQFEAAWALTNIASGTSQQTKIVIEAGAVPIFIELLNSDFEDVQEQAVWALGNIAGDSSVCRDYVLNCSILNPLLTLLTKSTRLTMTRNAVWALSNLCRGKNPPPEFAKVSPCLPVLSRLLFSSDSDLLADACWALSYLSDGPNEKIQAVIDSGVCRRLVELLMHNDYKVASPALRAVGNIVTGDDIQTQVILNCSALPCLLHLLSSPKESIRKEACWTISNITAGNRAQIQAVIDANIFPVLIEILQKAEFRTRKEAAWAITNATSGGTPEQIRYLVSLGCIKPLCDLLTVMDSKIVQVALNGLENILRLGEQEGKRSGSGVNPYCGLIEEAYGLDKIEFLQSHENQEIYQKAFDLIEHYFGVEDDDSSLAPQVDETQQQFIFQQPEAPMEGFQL
Sequence of human importin α5 ΔIBB (human) (chain, as listed by the source mutant): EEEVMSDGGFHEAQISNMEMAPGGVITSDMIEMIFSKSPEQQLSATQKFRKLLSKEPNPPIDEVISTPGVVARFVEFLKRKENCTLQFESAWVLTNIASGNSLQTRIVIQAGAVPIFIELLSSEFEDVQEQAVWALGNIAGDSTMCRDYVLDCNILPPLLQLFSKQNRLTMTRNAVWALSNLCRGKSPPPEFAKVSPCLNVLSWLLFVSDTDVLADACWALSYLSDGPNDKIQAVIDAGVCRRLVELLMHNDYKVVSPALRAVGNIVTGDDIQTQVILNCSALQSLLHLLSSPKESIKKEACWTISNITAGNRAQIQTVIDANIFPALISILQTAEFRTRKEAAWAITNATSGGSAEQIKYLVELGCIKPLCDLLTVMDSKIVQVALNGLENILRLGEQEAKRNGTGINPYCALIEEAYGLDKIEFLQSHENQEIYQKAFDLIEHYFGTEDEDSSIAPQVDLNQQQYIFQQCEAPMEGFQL

{FITC-Ahx}-IAEYKRRHNIGSDGLPNKRRRCLF [BSB PyV-LTA;NLS peptide (Black Sea Bass polyomavirus large tumor antigen residues 660-683)]
Kd (human importin α5 ΔIBB): 12 nM
Kd (human importin α1 ΔIBB): 31 nM
Kd (human importin α7 ΔIBB): 2 nM
Kd (mouse importin α2 ΔIBB): 4 nM
